Positions count from the first letter of the chain named.

The target in assay [1] is T1, Human PD-L1 His (human PD-L1 ECD with C-terminal His tag) (human, UniProt Q9NZQ7 19-238).
T1 construct: Biotinylated in ELISA and AlphaScreen assays; also called hPD-L1-his; biotinylated PD-L1 his
Kind of assay: ELISA, biotin-PD-L1 to plate-bound CD80, antibody titrated. As for the experimental part:
(§1) Excess protein was removed by washing with PBS-Tween (0.1% v/v) and the wells were blocked with 1% w/v bovine serum albumin (BSA, Sigma) in PBS for 1 hour at room temperature, after which plates were washed with PBS-Tween as above. 60 μL of a titration (three-fold serial dilution) of antibody was added to a 96-well, non-binding plate diluted in ELISA assay buffer (PBS +0.1% BSA). […] The plate was incubated for 30 minutes before transferring 50 μL to the coated plates. The coated plates were incubated for 1 hour at room temperature. Excess protein was removed by washing with PBS-Tween (0.1% v/v). PD-L1 binding was detected using streptavidin labelled europium (Perkin Elmer) diluted 1/1000 in DELFIA assay buffer (Perkin Elmer). The plates were washed with TBS (Tris buffered saline)-Tween (0.1% v/v) and 50 μL/well of DELFIA Enhancement solution (Perkin Elmer) was added to the plate. Time-resolved fluorescence was measured at 615 nm on an Envision plate reader (PerkinElmer). Percentage specific binding was calculated as defined in Equation 3. IC50 values were determined using GraphPad Prism software by curve fitting using a four-parameter logistic equation (Equation 4). Values for KM121 antibodies are a mean of three independent experiments. Values for KM122 are from a single experiment.

In assay [2] the target is T1, Human PD-L1 His (human PD-L1 ECD with …). In words: ELISA, biotin-PD-L1 to plate-bound PD-1, antibody titrated. As to the method: as §1
Assay [3] has the same target. In words: SPR 25C, antibody captured, PD-L1 analyte.

T1 sequence (Q9NZQ7 19-238 limits assumed): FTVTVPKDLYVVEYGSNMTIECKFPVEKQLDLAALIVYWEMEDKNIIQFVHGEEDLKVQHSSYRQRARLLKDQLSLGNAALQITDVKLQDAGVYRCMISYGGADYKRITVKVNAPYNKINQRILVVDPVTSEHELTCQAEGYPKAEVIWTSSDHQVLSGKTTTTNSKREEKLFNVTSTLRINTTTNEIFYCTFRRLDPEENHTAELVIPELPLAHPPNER

B1: 413D08 (antibody, human IgG1, kappa, V domains shown)
VH: QVQLVESGGGVVQPGRSLRLSCAASGFTFRIYGMHWVRQAPGKGLEWVAVIWYDGSNKYYADSVKGRFTISRDNSDNTLYLQMNSLRAEDTAVYYCARDMDYFGMDVWGQGTTVTVSS
VL: DLQMTQSPSSLSASVGDRVTITCRASQGIRNDLGWYQQKPGKAPKRLIYAASSLQSGVPSRFSGSGSGTEFTLTISSLQPEDFATYYCLQHNSYPRTFGQGTKVEIKR
Take B1: the figures for the IC50 in assay [1] and in assay [2] were 0.67 nM and 1.2 nM, respectively.

B2: 411B08 (antibody, human IgG1, kappa, V domains shown)
VH: EVQLVESGGGLVQPGGSLRLSCAASGFTFSSYWMSWVRQAPGKGLEWVANIKEDGSEKYYVDSVKGRFTISRDNAKNSLYLQMNSLRAEDTSVYYCARNRLYSDFLDNWGQGTLVTVSS
VL: DIQMTQSPSSVSASVGDRVTITCRASQGVSSWLAWYQQKSGKAPKLLIYGASSLQSGVPSRFSGSGSGTEFILTISSLQPEDFATYYCQQANSIPFTFGPGTKVDIKR
Turning to B2, the values for the IC50 in assay [1] and in assay [2] were 1.6 nM and 2.22 nM, respectively.

B3: 385F01 (antibody, human IgG1, kappa, V domains shown)
VH: B2 VH
VL: B2 VL
In the case of B3, the results for the IC50 in assay [1] and in assay [2] were 1.76 nM and 2.25 nM, respectively.

B4: 411C04 (antibody, human IgG1, kappa, V domains shown)
VH: B2 VH with E6D, V64L, N99V, N108Y
VL: B2 VL with T74S
B4: the values for the IC50 in assay [1] and in assay [2] were 1.93 nM and 2.45 nM, respectively.

B5: 411D07 (antibody, human IgG1, kappa, V domains shown)
VH: QVQLQESGPGLVKPSGTLSLTCIVSGGSIISSDWWNWVRQPPGKGLEWIGEIFHSGRTNYNPSLKSRVTISIDKSKNQFSLRLSSVTAADTAVYYCARDGSGSYWGQGTLVTVSS
VL: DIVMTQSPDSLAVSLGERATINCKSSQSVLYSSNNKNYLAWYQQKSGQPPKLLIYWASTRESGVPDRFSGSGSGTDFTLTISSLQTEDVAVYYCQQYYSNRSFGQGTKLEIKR
In assay [1], B5 registered an IC50 of 9.06 nM.

B6: 386H03 (antibody, human IgG1, kappa, V domains shown)
VH: B5 VH with I23A, I30S, N36S, R57N, I72V, F79I, S84N, A97V
VL: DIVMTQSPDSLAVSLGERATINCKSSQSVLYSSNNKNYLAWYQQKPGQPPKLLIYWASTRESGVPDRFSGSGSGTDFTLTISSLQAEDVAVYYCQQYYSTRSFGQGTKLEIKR
On to B6, for which the IC50 in assay [1] is 0.74 nM.

B7: 1D05 V to A & F to S change in VH (Seq ID No: 342), IgG1 disabled (LAGA), with 1D05 kappa (antibody, V domains shown)
VH: EVQLVESGGGLVQPGRSLRLSCAASGFTFDDYAMHWVRQAPGKGLEWVSGISWIRTGIGYADSVKGRFTISRDNAKNSLYLQMNSLRAEDTALYYCAKDMKGSGTYGGWFDTWGQGTLVTVSS
VL: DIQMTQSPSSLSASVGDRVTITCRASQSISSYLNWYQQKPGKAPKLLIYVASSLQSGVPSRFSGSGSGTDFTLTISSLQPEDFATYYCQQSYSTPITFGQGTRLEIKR
notes: Entry 342 is a whole heavy chain; also called 1D05 HC mutant 4
B7: the Kd in assay [3] amounted to 0.23 nM.

B8: 1D05 F to S change in VH (Seq ID No: 48), IgG1 disabled (LAGA), with 1D05 kappa V to A change (Seq ID No: 50) (antibody, V domains shown)
VH: B7 VH with A40V
VL: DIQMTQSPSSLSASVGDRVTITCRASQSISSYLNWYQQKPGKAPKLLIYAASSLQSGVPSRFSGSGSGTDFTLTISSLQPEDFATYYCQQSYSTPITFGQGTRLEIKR
notes: See note of m59
With B8, binding in assay [3] was put at a Kd of 1.94 nM.

B9: 1D05 - IgG1 disabled (LAGA) with 1D05 kappa, V to A change (Seq ID No: 50) (antibody, V domains shown)
VH: B7 VH with A40V, S71F
VL: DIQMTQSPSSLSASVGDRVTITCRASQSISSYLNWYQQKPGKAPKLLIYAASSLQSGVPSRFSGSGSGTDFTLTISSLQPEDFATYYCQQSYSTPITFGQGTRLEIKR
notes: also called 1D05 LC mutant 1
As for B9, binding in assay [3] was put at a Kd of 2.66 nM. This Kd and that of the molecule before are within 1.5-fold of each other.

B10: 1D05 F to S change in VH (Seq ID No: 48), IgG1 disabled (LAGA), with 1D05 kappa (antibody, V domains shown)
VH: B7 VH with A40V
VL: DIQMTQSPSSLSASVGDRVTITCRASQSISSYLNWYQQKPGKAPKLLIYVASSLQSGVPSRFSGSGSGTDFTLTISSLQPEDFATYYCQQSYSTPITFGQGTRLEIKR
notes: Entry 48 is a whole heavy chain; also called 1D05 HC mutant 2
Consider B10, for which the Kd in assay [3] came out at 0.23 nM.

B11: 1D05 V to A change in VH (Seq ID No: 47), IgG1 disabled (LAGA), with 1D05 kappa V to A change (Seq ID No: 50) (antibody, V domains shown)
VH: B7 VH with S71F
VL: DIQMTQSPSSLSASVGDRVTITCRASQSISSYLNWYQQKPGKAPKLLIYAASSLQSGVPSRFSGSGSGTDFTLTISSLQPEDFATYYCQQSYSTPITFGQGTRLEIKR
notes: See note of m58
B11 gave a dissociation constant Kd in assay [3] of 2.8 nM.

B12: 1D05 V to A & F to S change in VH (Seq ID No: 342), IgG1 disabled (LAGA), with 1D05 kappa V to A change (Seq ID No: 50) (antibody, V domains shown)
VH: B7 VH
VL: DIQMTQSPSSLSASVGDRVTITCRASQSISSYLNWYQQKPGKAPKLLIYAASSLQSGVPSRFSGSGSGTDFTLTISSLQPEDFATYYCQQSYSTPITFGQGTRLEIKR
notes: See note of m60
On to B12, for which the Kd in assay [3] was 1.94 nM.

B13: 1D05 V to A change in VH (Seq ID No: 47), IgG1 disabled (LAGA), with 1D05 kappa (antibody, V domains shown)
VH: B7 VH with S71F
VL: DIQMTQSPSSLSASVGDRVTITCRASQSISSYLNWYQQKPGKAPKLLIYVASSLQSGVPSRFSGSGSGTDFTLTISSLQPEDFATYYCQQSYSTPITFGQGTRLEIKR
notes: Listing entry 47 is a whole heavy chain said to carry the IgG1 disabled (LAGA) constant region; also called 1D05 HC mutant 1
Take B13: the Kd in assay [3] was determined as 0.33 nM.

B14: 389A03 (antibody, human IgG1, kappa, V domains shown)
VH: QLQESGPGLVKPSETLSLTCTVSGGSISSSSYYCGWIRQPPGKGLDWIGSIYSTGYTYYNPSLKSRVTISIDTSKNQFSCLILTSVTAADTAVYYCAISTAAGPEYFHRWGQGTLVTVSS
VL: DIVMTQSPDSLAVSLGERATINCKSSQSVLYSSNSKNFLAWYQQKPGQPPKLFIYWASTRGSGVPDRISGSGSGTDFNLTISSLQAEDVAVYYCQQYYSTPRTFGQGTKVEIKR
As to B14, the IC50 in assay [1] came out at 13.2 nM.

Values taken from patent publication US20210380699A1 (published 2021).
